Data as given in patent US20260008815A1, “CYCLIC PEPTIDE OR SALT THEREOF, AND USES THEREOF” (FUJIFILM Corporation, priority 2023, published 2026).
Numbered stars: 1 amine (or outer) side, 2 acyl side, 3 side chain; on linkers, the order of the positions; unused ones are H or OH. Bridge positions count the residues as written; N and C are the ends. Square brackets hold non-standard residues; d marks the D form. Primed or numbered codes have the meaning given here. Ends that are not written are not given here. acetyl″ = bridging -C(=O)-CH2- from a haloacetyl (chloroacetyl) group on the side-chain amine of K/Orn/Dab/Dap, the thiol sulfur replaces the halogen on its CH2 (X(acetyl) notation); acetyl = acetyl (haloacetyl before ring closure) on the side-chain amine, O=C(C[*:1])[*:2]; COCH2 = acetyl group that carries the bridge; hCys = N[C@@H](CCS)C(=O)O

Experiments:
[1] = molecular target: T1, Recombinant Human FGFR2 alpha (IIIc) Fc Chimera Protein (Homo sapiens, UniProt P21802); assay: SPR binding affinity of chemically synthesized cyclic peptide to immobilized FGFR; conditions: SPR binding amount at 10 nmol/L cyclic peptide, 25° C., per one molecule of FGFR; chemically synthesized product
T1 construct: Fc (chimera); purchased R&D systems 712-FR-050
Protocol: The binding affinity of the cyclic peptide to FGFR was evaluated using a surface plasmon resonance (SPR) method.
(§1) A CM5 sensor chip (Cytiva, 29149603) was set in Biacore-T200 (manufactured by Cytiva) which is a surface plasmon resonance device, and an HBS-EP buffer (Cytiva, BR100826) was added as a running buffer at a flow rate of 10 μL/min to equilibrate the flow channel. Next, 70 μL of a mixed aqueous solution of 0.2 mol/L 1-(3-dimethylaminopropyl)-3-ethylcarbodiimide (EDC) and 0.05 mol/L N-hydroxysuccinimide (NHS) was added to activate the sensor chip. Then, Recombinant Human FGFR2 alpha (IIIc) Fc Chimera Protein CF (R&D systems, 712-FR-050) prepared at 50 nmol/L in an Acetate 4.5 buffer (Cytiva, BR100350) was added thereto to perform immobilization at about 5000 RU. Thereafter, the blocking treatment was performed with an ethanolamine solution. In addition, in another flow channel of the same sensor chip, blocking treatment was performed immediately after activation without immobilizing FGFR.
(§2) A cyclic peptide diluted to 10 nmol/L using HBS-EP was added to each flow channel of the FGFR-immobilized sensor chip produced above at 25° C. for 10 minutes, then HBS-EP was allowed to flow as a running buffer for 30 minutes, and the binding of the cyclic peptide to FGFR was measured. Thereafter, a regeneration treatment of removing the bound cyclic peptide was performed by repeating the flow of a regeneration liquid in which sodium chloride powder was dissolved in Glysine 1.5 (Cytiva, BR100354) to a final concentration of 0.15 mol/L for 1 minute in each flow channel twice. The binding amount of the cyclic peptide was evaluated from the difference between the measured value of Biacore-T200 in the flow channel in which FGFR was immobilized and the measured value of Biacore-T200 in the flow channel in which FGFR was not immobilated, in a case where a 10 nmol/L cyclic peptide was allowed to flow.
The binding amount of the cyclic peptide evaluated above was normalized to the binding amount of the cyclic peptide molecules per one molecule of FGFR using the molecular weights of the cyclic peptide and FGFR, and the binding affinity to FGFR was evaluated according to the following evaluation criteria. The evaluation result preferably satisfies the evaluation criteria A, B, or C.

[2] = Molecular stability after reducing agent (DTT) treatment, LC; assay type: physicochemical; conditions: residual rate after DTT aqueous solution, room temperature, 1 hour
Protocol: The molecular stability of the cyclic peptide was evaluated by analyzing an aqueous solution of the cyclic peptide treated with a reducing agent by liquid chromatography (LC).
The reducing agent treatment was performed under the following conditions based on the concentration of glutathione contained in the cells. 25 μL of a 0.2 mg/mL cyclic peptide aqueous solution was prepared, 58.8 μL of a 12.6 mmol/L DTT aqueous solution was added to the aqueous solution, and the mixture was incubated at room temperature for 1 hour to obtain an aqueous solution of the cyclic peptide treated with a reducing agent. The DTT aqueous solution was used by diluting a 1 mol/L (+−)-dithiothreitol (DTT) solution (FUJIFILM Wako Pure Chemical Corporation, 044-33871) with water. The total area of all the peaks in LC/MS of the cyclic peptide before the reducing agent treatment was set to 100%, and the proportion of the total area of all the peaks in LC/MS of the aqueous solution of the cyclic peptide treated with the reducing agent was determined to calculate the residual rate of the cyclic peptide, and the molecular stability was evaluated according to the following evaluation criteria. The evaluation result preferably satisfies the evaluation criteria A, B, or C.
The LC used for the evaluation of molecular stability was set to the following conditions. • LC device: Prominence series (pump, column oven, autosampler, detector) (manufactured by Shimadzu Corporation) • Detector: photodiode array detector (SPD-M20A), measurement wavelength of 280 nm • Column: TSKgel ODS-100V, inner diameter of 4.6 mm×length of 150 mm, particle diameter of 5 μm (manufactured by Tosoh Corporation) • Eluent A: solution containing 0.1% trifluoroacetic acid as solute, and solvent is 100% water • Eluent B: solution containing 0.1% trifluoroacetic acid as solute, and solvent is 100% acetonitrile • Flow rate: 1.0 mL/min • Injection amount: 25 μL • Gradient: 20% to 50%: Eluent B (0 to 15 minutes), 100%: Eluent B (15 minutes) • Column temperature: 40° C.

[3] = molecular target: T2, Recombinant Human FGFR2 alpha (IIIc) Fc Chimera Protein, CF (R&D systems, 712-FR-050) (human, UniProt P21802 22-377); assay: SPR, 10 nmol/L peptide over immobilized FGFR2-Fc
T2 construct: bought; not shown: Fc part of the chimera
Protocol: as §1, §2

T2 sequence (P21802 22-377, change not shown): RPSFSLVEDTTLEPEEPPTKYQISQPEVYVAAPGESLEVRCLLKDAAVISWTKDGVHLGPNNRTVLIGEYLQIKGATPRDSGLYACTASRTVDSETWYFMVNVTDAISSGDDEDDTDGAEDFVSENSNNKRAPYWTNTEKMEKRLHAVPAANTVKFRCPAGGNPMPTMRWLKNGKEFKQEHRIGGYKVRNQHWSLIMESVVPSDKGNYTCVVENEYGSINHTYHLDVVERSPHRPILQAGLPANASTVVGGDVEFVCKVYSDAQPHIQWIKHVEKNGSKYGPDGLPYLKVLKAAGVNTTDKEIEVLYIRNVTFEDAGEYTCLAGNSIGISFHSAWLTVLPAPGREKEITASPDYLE
T1 sequence (P21802 with tags, fused parts or gaps limits assumed): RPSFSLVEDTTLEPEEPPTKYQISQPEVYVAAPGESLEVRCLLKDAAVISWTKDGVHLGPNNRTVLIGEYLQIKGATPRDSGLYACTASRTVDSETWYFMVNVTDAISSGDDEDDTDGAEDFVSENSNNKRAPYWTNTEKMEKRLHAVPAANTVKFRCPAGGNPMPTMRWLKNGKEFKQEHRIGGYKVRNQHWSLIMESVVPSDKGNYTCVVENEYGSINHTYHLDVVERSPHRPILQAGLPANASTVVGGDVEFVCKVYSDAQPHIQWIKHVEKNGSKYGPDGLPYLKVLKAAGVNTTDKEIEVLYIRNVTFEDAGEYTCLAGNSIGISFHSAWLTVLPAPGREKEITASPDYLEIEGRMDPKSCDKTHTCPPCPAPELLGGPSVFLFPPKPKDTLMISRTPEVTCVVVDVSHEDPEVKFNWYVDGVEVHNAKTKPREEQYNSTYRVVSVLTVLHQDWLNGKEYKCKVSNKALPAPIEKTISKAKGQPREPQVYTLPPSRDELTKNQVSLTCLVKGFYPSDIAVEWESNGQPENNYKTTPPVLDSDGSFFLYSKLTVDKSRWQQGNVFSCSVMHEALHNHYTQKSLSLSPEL

Row | Molecule | Evaluation result of binding affinity to FGFR [1] | Evaluation result of reductive stability [2] | binding amount (SPR, cyclic peptide molecules bound per FGFR molecule at 10 nmol/L peptide) [3]
1 | 433 (Q[hCys]PQNFINPVQWRYFQHYK(COCH2)NKKK; thioether 2-19 via acetyl) [compound 433] | A (The binding amount is 0.7 molecules of the cyclic peptide/one molecule of FGFR or more.) | A (The residual rate of cyclic peptide is 90% or more.) | 
2 | 434 (QXPQNFINPVQWRYFQHYXNKKK; not fully specified; Description of Artificial Sequence: Cyclic peptide) [compound 434] | A (The binding amount is 0.7 molecules of the cyclic peptide/one molecule of FGFR or more.) | A (The residual rate of cyclic peptide is 90% or more.) | 
3 | 435 (QXPQNFINPVQWRYFQHYXNKKK; not fully specified; Description of Artificial Sequence: Cyclic peptide) [compound 435] | A (The binding amount is 0.7 molecules of the cyclic peptide/one molecule of FGFR or more.) | A (The residual rate of cyclic peptide is 90% or more.) | 
4 | 437 (QK(COCH2)PQNFINPVQWRYFQHY[hCys]NKKK; thioether 2-19 via acetyl) [compound 437] | A (The binding amount is 0.7 molecules of the cyclic peptide/one molecule of FGFR or more.) | A (The residual rate of cyclic peptide is 90% or more.) | 
5 | 438 (QK(COCH2)PQNFINPVQWRYFQHY[hCys]NKKK; thioether 2-19 via acetyl) [compound 438] | A (The binding amount is 0.7 molecules of the cyclic peptide/one molecule of FGFR or more.) | A (The residual rate of cyclic peptide is 90% or more.) | 
6 | 439 (QXPQNFINPVQWRYFQHYXNKKK; not fully specified; Description of Artificial Sequence: Cyclic peptide) [compound 439] | A (The binding amount is 0.7 molecules of the cyclic peptide/one molecule of FGFR or more.) | A (The residual rate of cyclic peptide is 90% or more.) | 
7 | 440 (QXPQNFINPVQWRYFQHYXNKKK; not fully specified; Description of Artificial Sequence: Cyclic peptide) [compound 440] | A (The binding amount is 0.7 molecules of the cyclic peptide/one molecule of FGFR or more.) | A (The residual rate of cyclic peptide is 90% or more.) | 
8 | 441 (QXPQNFINPVQWRYFQHYXNKKK; not fully specified; Description of Artificial Sequence: Cyclic peptide) [compound 441] | A (The binding amount is 0.7 molecules of the cyclic peptide/one molecule of FGFR or more.) | A (The residual rate of cyclic peptide is 90% or more.) | 
9 | 442 (YXEENYLDPEQYQYFIYFKYKKK; not fully specified; Description of Artificial Sequence: Cyclic peptide) [compound 442] | A (The binding amount is 0.7 molecules of the cyclic peptide/one molecule of FGFR or more.) | A (The residual rate of cyclic peptide is 90% or more.) | 
10 | 443 (YXEENYLDPEQYQYFIYFXYKKK; not fully specified; Description of Artificial Sequence: Cyclic peptide) [compound 443] | A (The binding amount is 0.7 molecules of the cyclic peptide/one molecule of FGFR or more.) | A (The residual rate of cyclic peptide is 90% or more.) | 
11 | 444 (YXEENYLDPEQYQYFIYFXYKKK; not fully specified; Description of Artificial Sequence: Cyclic peptide) [compound 444] | B (The binding amount is 0.5 molecules of the cyclic peptide/one molecule of FGFR or more and less than 0.7 molecules of cyclic peptide/one molecule of FGFR.) | A (The residual rate of cyclic peptide is 90% or more.) | 
12 | 446 (YKEENYLDPEQYQYFIYFXYKKK; Description of Artificial Sequence: Cyclic peptide) [compound 446] | A (The binding amount is 0.7 molecules of the cyclic peptide/one molecule of FGFR or more.) | A (The residual rate of cyclic peptide is 90% or more.) | 
13 | YXEENYLDPEQYQYFIYFXYKKK (not fully specified; thioether ring (Hcy)-(Orn(acetyl)), chemically synthesized) [cyclic peptide SEQ ID NO: 443] |  |  | ≥ 0.7 moleculesofthecyclicpeptide/onemoleculeoffgfr
14 | YCEENYLDPEQYQYFIYFCYKKK (disulfide 2-19 (inferred), chemically synthesized) [cyclic peptide SEQ ID NO: 451] |  |  | < 0.1 moleculesofthecyclicpeptide/onemoleculeoffgfr
15 | QXPQNFINPVQWRYFQHYXNKKK (not fully specified; thioether ring (Dab(acetyl))-(Hcy), chemically synthesized) [cyclic peptide SEQ ID NO: 440] |  |  | ≥ 0.7 moleculesofthecyclicpeptide/onemoleculeoffgfr
16 | YXEENYLDPEQYQYFIYFXYKKK (not fully specified; thioether ring (Dap(acetyl))-(Hcy), chemically synthesized) [cyclic peptide SEQ ID NO: 449] |  |  | ≥ 0.7 moleculesofthecyclicpeptide/onemoleculeoffgfr
17 | XHENYLDPEQYQYFHYFKYKKK (thioether ring (Hcy)-(K(acetyl)), chemically synthesized) [cyclic peptide SEQ ID NO: 454] |  |  | 0.1 to 0.5 moleculesofthecyclicpeptide/onemoleculeoffgfr
18 | Y[hCys]EENYLDPEQYQYFIYFK(COCH2)YKKK (thioether 2-19 via acetyl″, chemically synthesized) [cyclic peptide SEQ ID NO: 442] |  |  | ≥ 0.7 moleculesofthecyclicpeptide/onemoleculeoffgfr
19 | YXHENYLDPEQYQYFHYFKYKKK (thioether ring (Hcy)-(K(acetyl)), chemically synthesized) [cyclic peptide SEQ ID NO: 452] |  |  | ≥ 0.7 moleculesofthecyclicpeptide/onemoleculeoffgfr
20 | YKEENYLDPEQYQYFIYFXYKKK (thioether ring (K(acetyl))-(Hcy), chemically synthesized) [cyclic peptide SEQ ID NO: 446] |  |  | ≥ 0.7 moleculesofthecyclicpeptide/onemoleculeoffgfr
21 | QXPQNFINPVQWRYFQHYXNKKK (not fully specified; thioether ring (Orn(acetyl))-(Hcy), chemically synthesized) [cyclic peptide SEQ ID NO: 439] |  |  | ≥ 0.7 moleculesofthecyclicpeptide/onemoleculeoffgfr
22 | YXEENYLDPEQYQYFIYFXYKKK (not fully specified; thioether ring (Dab(acetyl))-(Hcy), chemically synthesized) [cyclic peptide SEQ ID NO: 448] |  |  | ≥ 0.7 moleculesofthecyclicpeptide/onemoleculeoffgfr
23 | YXEENYLDPEQYQYFIYFXYKKK (not fully specified; thioether ring (Hcy)-(Dab(acetyl)), chemically synthesized) [cyclic peptide SEQ ID NO: 444] |  |  | 0.5 to 0.7 moleculesofthecyclicpeptide/onemoleculeoffgfr
24 | QXPQNFINPVQWRYFQHYXNKKK (not fully specified; thioether ring (Dap(acetyl))-(Hcy), chemically synthesized) [cyclic peptide SEQ ID NO: 441] |  |  | ≥ 0.7 moleculesofthecyclicpeptide/onemoleculeoffgfr
25 | YXHENYLDPEQYQYFHYFKKKK (thioether ring (Hcy)-(K(acetyl)), chemically synthesized) [cyclic peptide SEQ ID NO: 453] |  |  | 0.1 to 0.5 moleculesofthecyclicpeptide/onemoleculeoffgfr
26 | YXEENYLDPEQYQYFIYFXYKKK (not fully specified; thioether ring (Orn(acetyl))-(Hcy), chemically synthesized) [cyclic peptide SEQ ID NO: 447] |  |  | ≥ 0.7 moleculesofthecyclicpeptide/onemoleculeoffgfr
